# Measured values: paper PMC8062929, “ZmOrphan94 Transcription Factor Downregulates ZmPEPC1 Gene Expression in Maize Bundle Sheath Cells”
# T1: Trx::ZmOrphan94 (Zea mays B73, UniProt C0P6E9 1-264)
# T1 sequence: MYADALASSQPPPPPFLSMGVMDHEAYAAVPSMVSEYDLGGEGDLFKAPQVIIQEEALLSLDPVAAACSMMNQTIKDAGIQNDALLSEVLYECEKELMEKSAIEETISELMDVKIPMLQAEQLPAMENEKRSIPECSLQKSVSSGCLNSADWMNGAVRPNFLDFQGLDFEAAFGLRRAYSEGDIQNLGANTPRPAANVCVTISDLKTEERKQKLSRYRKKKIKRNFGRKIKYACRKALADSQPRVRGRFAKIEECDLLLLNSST
# What was measured:
# [1] = target: T1, Trx::ZmOrphan94; experiment: EMSA; out-competed by unlabelled WT probe (400x); EMSA: 1 ug protein, 50 fmol probe in 10 ul; 10 mM HEPES pH 7.9, 40 mM KCl, 1 mM EDTA, 1 mM DTT, 50 ng herring sperm DNA, 15 ug BSA, 10% glycerol, 1 h on ice; 5% native PAGE; details: protein: recombinant; tags: N-terminal Trx (pET32a); label: 32P; 5' overhang 4 nt on each strand as annealed
# [2] = target: T1, Trx::ZmOrphan94; experiment: EMSA; strongest band; out-competed by unlabelled WT probe (400x); EMSA: 1 ug protein, 50 fmol probe in 10 ul; 10 mM HEPES pH 7.9, 40 mM KCl, 1 mM EDTA, 1 mM DTT, 50 ng herring sperm DNA, 15 ug BSA, 10% glycerol, 1 h on ice; 5% native PAGE; details: protein: recombinant; tags: N-terminal Trx (pET32a); label: 32P; 5' overhang 4 nt on each strand as annealed
Binder,binding result [1],binding result [2]
5U-ZmPEPC1-2 (dsDNA) DNA 1: ACGTGCGAGGGCCGCCCGTTCCCGTGCACAGCCACG DNA 2: ATCACGTGGCTGTGCACGGGAACGGGCGGCCCTCGC,binds,
5U-ZmPEPC1-3 (dsDNA) DNA 1: ACGTGTCCCGTGCACAGCCACACACACACCCGCCCG DNA 2: ATCACGGGCGGGTGTGTGTGTGGCTGTGCACGGGAC,,binds
5U-ZmPEPC1-1 (dsDNA) DNA 1: ACGTGGCGGTTACCGCCGATCACATGCCCAAGGCCG DNA 2: ACATCGGCCTTGGGCATGTGATCGGCGGTAACCGCC,binds,
